# Assay results published in patent US20030044896.
# Residue numbers refer to the chain shown, from its start.
# T1: Mas-DH[K22Q]+Gly
# T1 chain: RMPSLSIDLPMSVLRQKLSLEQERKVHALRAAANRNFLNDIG
# T2: Mas-DH+Gly (42 amino acid precursor of Manduca sexta diuretic hormone)
# T2 chain: T1 chain with Q22K
# B1: Mkc7 endoprotease (encoded by MKC7) (protein)
# chain: DDDYELVELTNQNSFYSVELDIGTPPQKVTVLVDTGSSDLWVTGSDNPYCSTKKKDTTGSSFKQVNKDALASVVESVFTEISYDTTIVTSEATATFDSTASTSQLIDCATYGTFNTSKSSTFNSNNTEFSIAYGDTTFASGTWGHDQLSLNDLNITGLSFAVANETNSTVGVLGIGLPGLESTYSGVSLSSVQKSYTYNNFPMVLKNSGVIKSTAYSLFANDSDSKHGTILFGAVDHGKYAGDLYTIPIINTLQHRGYKDPIQFQVTLQGLGTSKGDKEDNLTTLTTTKIPVLLDSGTTISYMPTELVKMLADQVGATYSSAYGYYIMDCIKEMEEESSIIFDFGGFYLSNWLSDFQLVTDSRSNICILGIAPQSDPTIILGDNFLANTYVVYDLDNMEISMAQANFSDDGEYIEIIESAVPSALKAPGYSSTWSTYESIVSGGNMFSTAANSSISYFASTSHSATSSSSSKGQKTQTSTTALSISKSTSSTSSTGMLSPTSSSSTRKEN
# B2: Yap3 endoprotease (Yeast Aspartyl Protease 3, encoded by YAP3) (protein)
# chain: ADGYEEIIITNQQSFYSVDLEVGTPPQNVTVLVDTGSSDLWIMGSDNPYCSSNSMGSSRRRVIDKRDDSSSGGSLINDINPFGWLTGTGSAIGPTATGLGGGSGTATQSVPASEATMDCQQYGTFSTSGSSTFRSNNTYFSISYGDGTFASGTFGTDVLDLSDLNVTGLSFAVANETNSTMGVLGIGLPELEVTYSGSTASHSGKAYKYDNFPIVLKNSGAIKSNTYSLYLNDSDAMHGTILFGAVDHSKYTGTLYTIPIVNTLSASGFSSPIQFDVTINGIGISDSGSSNKTLTTTKIPALLDSGTTLTYLPQTVVSMIATELGAQYSSRIGYYVLDCPSDDSMEIVFDFGGFHINAPLSSFILSTGTTCLLGIIPTSDDTGTILGDSFLTNAYVVYDLENLEISMAQARYNTTSENIEIITSSVPSAVKAPGYTNTWSTSASIVTGGNIFTVNSSQTASFSGNLTTSTASATSTSSKRN
# Key:
# [1] = target: T1, Mas-DH[K22Q]+Gly
# [2] = target: T2, Mas-DH+Gly (42 amino acid precursor of …)
Protein,"proteolytic fragments recovered from culture medium of the yap3 deletion strain HKY20[pKSC3] (RPLC, ESI-MS) [1]","proteolytic fragments recovered from culture medium of protease deletion strains (RPLC, ESI-MS) [2]","proteolytic fragments recovered from culture medium of the mkc7 deletion strain HKY21[pKSC3] (RPLC, ESI-MS) [1]"
B1,suggesting that Mkc7 cleaved after Lys^25,"both Yap3 and Mkc7 are capable of contributing to the cleavage of Mas-DH+Gly at the Lys^22 residue, as well as at other sites",–
B2,–,"both Yap3 and Mkc7 are capable of contributing to the cleavage of Mas-DH+Gly at the Lys^22 residue, as well as at other sites",suggesting that Yap3 cleaved after Arg at the two sites E R ↓ K V and L R ↓ Q K
